Each block holds one binder with its values, some of them ahead of it.
Assays:
[1] = target: Biotinylated human BSSL (human) (UniProt P19835); experiment: SPR single cycle kinetics, scFv captured by anti-FLAG M2
[2] = target: Biotinylated human BSSL (human) (UniProt P19835); experiment: ELISA, b-hBSSL coated through streptavidin at 1 µg/ml, detection HRP anti-FLAG M2, A450
[3] = target: Biotinylated human BSSL (human) (UniProt P19835); experiment: flow cytometry displacement assay; 1.5 ug antibody, 1 ug b-hBSSL
[4] = target: Biotinylated human BSSL (human) (UniProt P19835); experiment: flow cytometry displacement assay; 3.0 ug antibody, 1 ug b-hBSSL

Chain of Biotinylated human BSSL (human) (P19835 other isoform, or with tags, fused parts or gaps): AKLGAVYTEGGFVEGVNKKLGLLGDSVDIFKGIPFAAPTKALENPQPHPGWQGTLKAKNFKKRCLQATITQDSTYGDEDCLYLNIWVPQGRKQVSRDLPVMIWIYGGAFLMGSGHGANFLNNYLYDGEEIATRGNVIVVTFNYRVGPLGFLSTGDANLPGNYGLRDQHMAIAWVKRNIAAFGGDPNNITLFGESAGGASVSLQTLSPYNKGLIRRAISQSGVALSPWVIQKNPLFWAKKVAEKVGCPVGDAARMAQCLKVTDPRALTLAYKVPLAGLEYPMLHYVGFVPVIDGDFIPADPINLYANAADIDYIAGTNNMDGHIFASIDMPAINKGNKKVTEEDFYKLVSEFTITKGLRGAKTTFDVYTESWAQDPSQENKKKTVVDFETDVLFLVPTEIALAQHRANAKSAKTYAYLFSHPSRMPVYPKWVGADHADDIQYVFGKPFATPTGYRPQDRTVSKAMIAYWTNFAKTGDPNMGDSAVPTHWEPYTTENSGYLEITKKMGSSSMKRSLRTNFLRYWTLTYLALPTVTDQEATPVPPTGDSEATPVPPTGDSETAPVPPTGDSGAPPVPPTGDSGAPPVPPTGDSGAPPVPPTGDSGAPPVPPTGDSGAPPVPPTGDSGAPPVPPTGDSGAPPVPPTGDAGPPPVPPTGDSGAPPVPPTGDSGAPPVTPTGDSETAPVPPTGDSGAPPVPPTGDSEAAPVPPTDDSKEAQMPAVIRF

Kd [1]: 800 pM | koff [1]: 4.4e-05 s⁻¹ | kon [1]: 55000 M⁻¹ s⁻¹ | EC50 (read off the curve) [2]: 0.02 µg/mL
B1: AS20 scFv (scFv, V domains shown, not shown: small tags and cut ends)
VH: QVQLQQPGAELVKPGASVKMSCKASGYTFTSYNMHWVKQTPGQGLEWIGVIYPGNGDTSYNQKFKGKATLTADKSSSTAYMQLSSLTSEDSAVYYCARDYYGSSPLGYWGQGTTLTVSS
VL: QIVLTQSPAVMSASPGEKVTMTCSASSSISYMHWYQQKPGTSPKRWIYDTSKLASGVPARFSGSGSGTSYSLTISSMEAEDAATYYCHQRSSYPTFGGGTKLEIK
modifications: Gly-Ser linker; C-terminal 3xFLAG and His6 tags

percentage reduction of b-hBSSL binding to CD14+ monocytes [3]: 3% | percentage reduction of b-hBSSL binding to CD14+ monocytes [4]: 0%
B2: S-SL048-75 hIgG4 S228P (antibody, V domains shown)
VH: QVQLVQSGAEVKKPGASVKVSCKASGYTFTSYNMHWVRQAPGQGLEWMGVIYPGGGYTSYAQKFKGRVTMTRDTSTSTVYMELSSLRSEDTAVYYCARDYYGSSPLGYWGQGTLVTVSS
VL: DIQMTQSPSSLSASVGDRVTITCRASQSISYLNWYQQKPGKAPKLLIYATSNLQSGVPSRFSGSGSGTDFTLTISSLQPEDFATYYCHQRSSSPTFGQGTKLEIK
